Values belong to the molecule of their own block, whether it stands above or below them.
Columns and labels:
[1] = molecular target: GST-p53 construct (Res. 73-390) [GST: P08515]; assay: in vitro binding, ^35S-T-antigen probe on bead-immobilized GST-p53
[2] = molecular target: Ig^b and Ig^c, as partners of Ig^b in the 'Ig^b-Ig^b, Ig^b-Ig^c combinations'; assay: in vitro binding, ^35S in vitro translated probe on bead-immobilized GST fusion, PhosphorImager
[3] = molecular target: T1, GST-Ig^b fusion protein (polycystin-1 Ig-like domains VI-X, amino acids 1205-1625, fused to GST) (human, UniProt P98161 1205-1625); assay: in vitro binding, ^35S in vitro translated probe on bead-immobilized GST fusion
T1 construct: used soluble in the MDCK adhesion assays; not shown: glutathione S-transferase carrier encoded by the pGEX vector (Pharmacia), N-terminal fusion partner; linker residues not
T1 sequence: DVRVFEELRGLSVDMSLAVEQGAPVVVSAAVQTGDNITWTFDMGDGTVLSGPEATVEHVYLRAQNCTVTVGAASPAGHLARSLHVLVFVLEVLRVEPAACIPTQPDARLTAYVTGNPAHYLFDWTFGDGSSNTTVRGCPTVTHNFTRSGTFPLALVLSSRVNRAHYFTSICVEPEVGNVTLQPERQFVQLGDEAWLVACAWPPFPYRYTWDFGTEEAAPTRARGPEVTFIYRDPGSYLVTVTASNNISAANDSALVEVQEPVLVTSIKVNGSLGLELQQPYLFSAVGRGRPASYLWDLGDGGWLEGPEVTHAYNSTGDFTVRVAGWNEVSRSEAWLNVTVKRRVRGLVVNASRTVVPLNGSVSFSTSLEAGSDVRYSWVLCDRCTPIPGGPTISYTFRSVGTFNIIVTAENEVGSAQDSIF

[4] = molecular target: T2, ^35S-PKD2 probe (C-terminal region of polycystin-2, Res. 657-968) (UniProt Q13563 657-968, ^35S-labeled (in vitro translation)); assay: in vitro binding, autoradiogram (FIG. 12C)
T2 construct: range 657-968; In vitro translated in the same manner as the Ig probes; also called polycystin-2 probe; PKD2 gene product
T2 sequence (looked up): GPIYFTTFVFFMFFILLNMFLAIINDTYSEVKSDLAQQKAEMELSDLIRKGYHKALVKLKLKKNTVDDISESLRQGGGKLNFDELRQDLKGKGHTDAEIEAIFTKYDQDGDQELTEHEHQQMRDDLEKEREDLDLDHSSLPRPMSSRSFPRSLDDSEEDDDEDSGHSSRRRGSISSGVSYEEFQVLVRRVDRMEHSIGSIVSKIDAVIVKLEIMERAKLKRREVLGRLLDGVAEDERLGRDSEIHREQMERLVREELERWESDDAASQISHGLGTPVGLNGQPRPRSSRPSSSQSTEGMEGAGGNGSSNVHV

GST-p53 construct (Res. 73-390) [GST: P08515], sequence (P08515 whole entry, the tested form may be a part): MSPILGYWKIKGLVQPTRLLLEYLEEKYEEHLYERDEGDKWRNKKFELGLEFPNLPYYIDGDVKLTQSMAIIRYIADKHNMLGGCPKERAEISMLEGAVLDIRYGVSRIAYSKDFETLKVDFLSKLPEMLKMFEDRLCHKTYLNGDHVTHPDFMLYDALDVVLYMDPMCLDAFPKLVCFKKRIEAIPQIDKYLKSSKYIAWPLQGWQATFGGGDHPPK

Molecule: ^35S-T-antigen probe (SV40 large T-antigen, res. 87-708) (from UniProt P03070 87-708)
- bound fraction (percentage of input probe) [1]: 45%

- bound fraction (percentage of input probe) [2]: 25 to 45%
- binding result [3]: binds
B1: ^35S-Ig^b in vitro translated probe (polycystin-1 Ig-like domains VI-X) (other)
chain: DVRVFEELRGLSVDMSLAVEQGAPVVVSAAVQTGDNITWTFDMGDGTVLSGPEATVEHVYLRAQNCTVTVGAASPAGHLARSLHVLVFVLEVLRVEPAACIPTQPDARLTAYVTGNPAHYLFDWTFGDGSSNTTVRGCPTVTHNFTRSGTFPLALVLSSRVNRAHYFTSICVEPEVGNVTLQPERQFVQLGDEAWLVACAWPPFPYRYTWDFGTEEAAPTRARGPEVTFIYRDPGSYLVTVTASNNISAANDSALVEVQEPVLVTSIKVNGSLGLELQQPYLFSAVGRGRPASYLWDLGDGGWLEGPEVTHAYNSTGDFTVRVAGWNEVSRSEAWLNVTVKRRVRGLVVNASRTVVPLNGSVSFSTSLEAGSDVRYSWVLCDRCTPIPGGPTISYTFRSVGTFNIIVTAENEVGSAQDSIF
modifications: ^35S-labeled (in vitro translation)
notes: Translated in reticulocyte lysate without the GST portion, from an AUG in a Kozak context placed upstream of the insert

- binding result [4]: binds
B2: MBP-PKD1 fusion protein (C-terminal region of polycystin-1, Res. 4077-4302, fused to MBP) (other, not shown: large carriers)
chain: ESWHLSPLLCVGLWALRLWGALRLGAVILRWRYHALRGELYRPAWEPQDYEMVELFLRRLRLWMGLSKVKEFRHKVRFEGMEPLPSRSSRGSKVSPDVPPPSAGSDASHPSTSSSQLDGLSVSLGRLGTRCEPEPSRLQAVFEALLTQFDRLNQATEDVYQLEQQLHSLQGRRSSRAPAGSSRGPSPGLRPALPSRLARASRGVDLATGPSRTPLRAKNKVHPSST
notes: Immobilized on amylose resin; also called polycystin-1 c-terminal fusion protein

— US20070212347A1 (published 2007)
